Data from paper PMC9374677 (2022).

Biological target: T1, MBP-TNFR1^ECD deletion mutant ΔCRD1 (human, UniProt P19438 22-211)
T1 chain: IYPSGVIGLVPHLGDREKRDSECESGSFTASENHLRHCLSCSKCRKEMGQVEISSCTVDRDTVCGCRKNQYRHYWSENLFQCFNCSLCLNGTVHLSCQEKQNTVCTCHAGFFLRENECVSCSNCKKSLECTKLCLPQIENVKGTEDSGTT
Test: ITC

B1: Staphylococcal superantigen-like protein 10 (SSL10), residues 31-227, C-terminal 6xHis (natural protein)
chain: KQNQKSVNKHDKEALYRYYTGKTMEMKNISALKHGKNNLRFKFRGIKIQVLLPGNDKSKFQQRSYEGLDVFFVQEKRDKHDIFYTVGGVIQNNKTSGVVSAPILNISKEKGEDAFVKGYPYYIKKEKITLKELDYKLRKHLIEKYGLYKTISKDGRVKISLKDGSFYNLDLRSKLKFKYMGEVIESKQIKDIEVNLK
Q: Which Kd does the source give for B1 here?
A: 11.1 µM
